4 molecules from patent publication US20220227887A1 (ONO PHARMACEUTICAL, published 2022) can be followed below.

Experiment [1] concerns the target T1, monomeric mouse LAG3-EC (strep-tagged) (mouse, UniProt Q61790 24-422, limits assumed).
T1 construct: It was immobilized on a streptavidin-coated biosensor; also called mouse LAG3 soluble protein; not shown: C-terminal strep tag
T1 sequence: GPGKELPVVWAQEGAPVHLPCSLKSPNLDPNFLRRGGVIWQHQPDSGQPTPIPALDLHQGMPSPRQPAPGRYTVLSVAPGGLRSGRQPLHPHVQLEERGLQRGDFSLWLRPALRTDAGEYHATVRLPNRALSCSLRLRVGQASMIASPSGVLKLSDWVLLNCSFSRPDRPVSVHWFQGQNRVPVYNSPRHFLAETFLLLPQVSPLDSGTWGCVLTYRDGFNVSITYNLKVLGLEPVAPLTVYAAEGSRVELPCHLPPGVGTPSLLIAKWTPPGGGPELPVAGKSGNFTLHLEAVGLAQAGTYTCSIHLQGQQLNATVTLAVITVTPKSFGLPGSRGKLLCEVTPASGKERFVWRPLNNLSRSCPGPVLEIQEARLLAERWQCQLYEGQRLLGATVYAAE
The experiment can be described thus: biolayer interferometry (BLItz), strep-tagged monomeric mouse LAG3-EC on the biosensor, antibody at 66.67, 200, 666.7 and 2000 nM. On the procedure:
(§1) The binding affinity of anti-mouse LAG3 antibodies (TKB58 and C9B7W) to a mouse LAG3 soluble protein was measured by biolayer interferometry. Briefly, cDNA fragments encoding D1 to D4 (LAG3-EC) of mouse LAG3 were amplified by PCR. A strep tag was added to the C-terminus of LAG3-EC. The chimeric cDNA was cloned into an expression vector modified from pEBMulti-Neo (Wako). Plat-E cells were transfected with the plasmid using Avalanche-Omni Transfection Reagent (EZ Biosystems) and the culture supernatant was collected after 48 hours. Monomeric mouse LAG3-EC (strep-tagged) was immobilized on a streptavidin-coated biosensor chip (Pall ForteBio) and binding of anti-mouse LAG3 antibodies at various concentrations was monitored with BLItz (Pall ForteBio). The chips were washed with PBS and the dissociation rates were analyzed. The binding rate constant (ka), the dissociation rate constant (kd), and the dissociation constant […] were calculated with BLItz Pro software. In TKB58, as compared with a case in C9B7W, ka was about 26 times faster and kd was 3.6 times slower.
(In general: Biolayer interferometry detects binding as a change in optical thickness at a sensor tip.)

For experiment [2], the target named is T2, mouse LAG3 (wild type), forcibly expressed on DO11.10 or B3Z cells (mouse, UniProt Q61790 24-521).
T2 construct: The whole entry is named; also called mLAG3; mLAG3 WT
T2 sequence: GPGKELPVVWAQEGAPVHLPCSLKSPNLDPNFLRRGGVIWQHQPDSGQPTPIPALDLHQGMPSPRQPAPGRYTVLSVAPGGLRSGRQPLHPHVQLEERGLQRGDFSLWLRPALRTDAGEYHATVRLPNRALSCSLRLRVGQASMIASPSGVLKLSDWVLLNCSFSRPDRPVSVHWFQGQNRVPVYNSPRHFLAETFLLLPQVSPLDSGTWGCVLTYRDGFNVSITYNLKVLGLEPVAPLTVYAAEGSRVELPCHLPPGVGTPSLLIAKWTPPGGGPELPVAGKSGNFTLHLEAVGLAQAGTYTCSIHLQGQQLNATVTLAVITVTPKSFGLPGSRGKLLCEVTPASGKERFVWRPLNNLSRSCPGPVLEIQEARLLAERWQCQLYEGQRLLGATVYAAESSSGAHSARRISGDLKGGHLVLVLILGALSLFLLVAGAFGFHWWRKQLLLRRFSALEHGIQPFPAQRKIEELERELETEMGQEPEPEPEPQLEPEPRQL
In words: flow cytometry of cells stained with culture supernatant. The text has this:
A nucleic acid encoding the heavy and light chain variable regions of an anti-mouse LAG3 antibody (TKB58) and an anti-mouse CD8 antibody (YTS169) was synthesized, amplified by PCR, and was cloned into an expression plasmid vector produced by modifying pEBMulti-Neo (Wako), whereby an expression plasmid of a bispecific molecule TKB58xYTS169 (SEQ ID NO: 33) recognizing mouse LAG3 and mouse CD8 was produced. The expression plasmid was transfected into PlatE cells using Avalanche-Omni Transfection Reagent (EZ Biosystems), and the culture supernatant was collected after 48 hours. DO11.10, DO11.10-mLAG3, B3Z, and B3Z-mLAG3 cells were stained using the culture supernatant.
On the technique in general: A flow cytometer gives signals particle by particle.

In experiment [3] the target is T1, monomeric mouse LAG3-EC (strep-tagged). The experiment can be described thus: biolayer interferometry (BLItz); reference C9B7W. On the procedure: as §1
Experiment [4] addresses T2, mouse LAG3 (wild type), forcibly …. In words: flow cytometry of DO11.10-mLAG-3 cells (CD3ε +, LAG-3 +) stained with culture supernatant, detected with anti-FLAG tag antibody. The text has this:
A nucleic acid encoding the heavy and light chain variable regions of an anti-mouse LAG3 antibody (TKB58) and an anti-mouse CD3s antibody (2C11) was synthesized, amplified by PCR, and was cloned into an expression plasmid vector produced by modifying pEBMulti-Neo (Wako) or pSecTag2/Hygro (Thermo Fisher Scientific), whereby expression plasmids of bispecific molecules 2C11xTKB58 (SEQ ID NO: 31) and TKB58x2C11 (SEQ ID NO: 32) recognizing mouse LAG3 and […] were produced. The expression plasmid was transfected into PlatE cells using Avalanche-Omni Transfection Reagent (EZ Biosystems), and the culture supernatant was collected after 48 hours. BW5147, DO11.10, and DO11.10-mLAG3 cells were stained using the culture supernatant.

Regarding anti-mouse LAG3 antibody C9B7W, in experiment [1], the Kd (as a rule, a measure of binding affinity in units of concentration) is 414 nM; the off-rate constant (koff) – broadly, a measure of how fast the partners let go of each other – worked out at 0.00392 s⁻¹; the kon – broadly, a measure of how fast the partners come together – was 9480 M⁻¹ s⁻¹.

B1: bispecific molecule TKB58xYTS169 (bispecific antibody)
chain: DAAQPARVQLQQSGAELVRPGALVKLSCKASGFNIKDYYMHWVKQRPEQGLEWIGWIDPENGNTIYDPKFQDKASLTADTSSNTAYLQLSSLTSEDTAVYYCAPERGYDYAMDYWGQGTSVTVSSGGGGSDIVLTQSPAMAMSPGERITISCRASESVSTRMHWYQQKPGQQPKLLIYGASNLESGVPARFSGSGSGTDFTLTIDPVEANDTATYFCQQSWYDPWTFGGGTKLELKGGGGSGGGGSGGGGSEVKLQESGGGLVQPGRSLKLSCAASGFNFNDYWMGWVRQAPGKGLEWIGEINKDSSTINYTPSLKDKFTISRDNAQNTLYLQMSKLGSEDTAIYYCARARGMMVLIIPHYFDYWGQGVMVTVSSTGGGGSIVLTQSPATLSVTPGDSVSLSCRASQSISNNLHWYQQKSHESPRLLIKYASQSISGIPSRFSGSGSGTDFTLSINSVETEDFGMYFCQQSNSWPQYTFGGGTKLEIKGGGGSDYKDDDDKNSAVDHHHHHH
notes: Used as culture supernatant of transfected PlatE cells
B1: the binding result in experiment [2] is “binds”.

B2: anti-mouse LAG3 antibody TKB58 (antibody, V domains shown)
VH: VQLQQSGAELVRPGALVKLSCKASGFNIKDYYMHWVKQRPEQGLEWIGWIDPENGNTIYDPKFQDKASLTADTSSNTAYLQLSSLTSEDTAVYYCAPERGYDYAMDYWGQGTSVTVSS
VL: IVLTQSPATLSVTPGDSVSLSCRASQSISNNLHWYQQKSHESPRLLIKYASQSISGIPSRFSGSGSGTDFTLSINSVETEDFGMYFCQQSNSWPQYTFGGGTKLEIK
notes: Full-form antibody; also called TKB58 antibody; full-form anti-mouse LAG3 antibody
Take B2: in experiment [3], the “fold faster ka against C9B7W” value was ~26 times, the “fold lower KD against C9B7W” value turned out to be 94 times and the “fold slower kd against C9B7W” value was 3.6 times. In addition, in experiment [1], the dissociation constant (Kd) turned out to be 4.39 nM, the koff stood at 0.0011 s⁻¹ and the on-rate constant (kon) was determined as 251000 M⁻¹ s⁻¹.

B3: bispecific molecule 2C11xTKB58 (bispecific antibody)
chain: DAAQPAREVQLVESGGGLVQPGKSLKLSCEASGFTFSGYGMHWVRQAPGRGLESVAYITSSSINIKYADAVKGRFTVSRDNAKNLLFLQMNILKSEDTAMYYCARFDWDKNYWGQGTMVTVSSGGGGSIVLTQSPATLSVTPGDSVSLSCRASQSISNNLHWYQQKSHESPRLLIKYASQSISGIPSRFSGSGSGTDFTLSINSVETEDFGMYFCQQSNSWPQYTFGGGTKLEIKGGGGSGGGGSGGGGSVQLQQSGAELVRPGALVKLSCKASGFNIKDYYMHWVKQRPEQGLEWIGWIDPENGNTIYDPKFQDKASLTADTSSNTAYLQLSSLTSEDTAVYYCAPERGYDYAMDYWGQGTSVTVSSGGGGSDIQMTQSPSSLPASLGDRVTINCQASQDISNYLNWYQQKPGKAPKLLIYYTNKLADGVPSRFSGSGSGRDSSFTISSLESEDIGSYYCQQYYNYPWTFGPGTKLEIKGGGGSDYKDDDDKNSAVDHHHHHH
notes: as for B1
In the case of B3, in experiment [4], the binding result is recorded as “binds”.
